test: soluble on expression in E. coli; label from the status in PepcDB or PDB records

Sequence	soluble on expression in E. coli
MKFIVKPHPEIFVKSESVRKRFTKILECNIRNIVKSRTESVAVFNRRDHIEVTSESNEYHAEVLEILTHTPGIHHVLEVKQSEFKDLHDIYEQVLELSRPLIENKTFVVRAKRRGKHDFTSIELERYVGGGLNQAVESARVKLHNPDVTVKVEVSGDKLNQVLARHKGLGGFPLGTQEDVLSLISGGFDSGVSSYLHIKRGSKVHYCFFNLGGPAHEIGVKQVSHYLWNKYGSSAKVRFISVDFEPVVAEILEKVDDGQMGVILKRMFMRAAGMIAEKFKIEALVTGEALGQVSSQTLTNLRHIDNVTDTLILRPLINWDKEDIINLAREIGTEDFAKTMPEYCGVISKKPTVKAVKEKLEAEEAKFDFSILEKVVYEARQMDIRDIAKESEQAAPEVEQVQAVEEHAVVLDIRSPDEEDDNPLEIAGVDVKHIPFYKLGTQFGDLDQSKTYLLYCDRGVMSRLQALYLQEQGFNNVKVYRP	not soluble
MGSDKIHHHHHHMKRLIGCVLLFLGASLYGCGGQGEDPETIVSEKPIEEWDDEEEDGGEWTVPDIDLSNFRHDPTEWGENVTGVKTKLDTKEQVIALTLDACGGPHGSQFDEELLAYLQEKEIPATLFVNERWIDENEDVFLSLANNPLFQIENHGSAHKPLSVNGRNAWNIEGTKSPEEVVNEITNNQQRIYQLTGRSTRLFRSGTAFYDEVAVEIANALGVEVVNYSVLGDAGATFTAEQVKAALLNAEPGAIVLMHMNQPASGTAAGVKAAIPLLIEKGYTFARLDEYDLT	not soluble
MGSDKIHHHHHHMKAAIITKYKQITPMVTEVPVPTIAPTDVLVKIVAASVNPIDLKTKDGDLRLLLQYTMPLIMGSDFAGVITAVGDQVPDFKVGDAVYGRAPKDRIGTFAEFIAIDHQAIALKPANLNFEEAAAIPLVGLTSYQALHDIMNIQPGQKVFIPGGSGGIGIIAIQLAKYFGAYVATTTSAKHFDLVQSLGADKIIDYHQQDFTDVLSHYDAVLDTRGGQSLEAAFQIIKPGGQIVSIAGLPNARFGKDYGLPIWKQWLLGLATRKLSRLEQQAQATYSFLFMQPSGQQLVRLRQLIEQGVIKPVVDRIIPLTDINAALEYSHSGHTTGKIIISIQPN	not soluble
MGSDKIHHHHHHMKILIVGGSGGIGSAMVKDALARFQDAEVHATFCTDSTHTGCSHFSGVKWHRLDVTDEAGIKALSESFESLDWLINCVGMLHSGSKGPEKSLSQFDGEFFLHNMTLNTLPTLLLAKHFSARLKSSVSPRLAVLSARVGSISDNRLGGWYSYRASKAALNMLIKTLAVEWQRSLKGGVVLALHPGTTKTRLSEPFQANVPGDKLFLPERVAADLMDIIARAEVCDSGSFLAYDGATIPW	not soluble
MSLSERTYFPPAEEGELSKVESFLAVYKDRHGTEARPQFFLSGSNEGEQIPLPKELYEILVRTVEALASGKAVTIHPNDPLVTTQQAAELLGVSRPTVVKLIEDGKLEATKVTRHRRIKLEDVLRYQERQTIEQLDFLASTTSDAPALTESEYVSVRKMLANKRKESRIG	not soluble
MAHHHHHHMKYLTFNRSNKDAIDLCERLEATKIDLANPLLLQYSWVIWEQVSDNKIKQSNNYKDYTRPLAKFNSVQKFWQLWNRLPQPSDLLAQKSMTRLSEDGTLRIIDALMIFRDNIQPMWEDPANAEGGHFEYKFVPRDFPYSQIDEFWNNLVLAIIGCTLKHYNLITGIRLVDKLSTTRHGYVRIEIWYTTVPDESVRNHLRKDLEEHMCNRIDGSHVYPPRGKNFSHSHK	soluble
MQQPVINQQPGYNPQGMNPVQQFEMHQQQHQQAITTQPGVFVQPAPGSVWMPMPPAIQGVPTGLEYLTYLDTIMVHQIKELIEIVTDWETKNKYVLKNANGEQCYYAFEESGCCERQCCGPQRGFVMHIVDNFKREVLTIKREFKCCGGGCCGCLACIGCCQQECIIETPSMGVLGIIRQRCGCMSSNYDIMDGDGNVIFQIDGPCCCMLCGCQDKEFPIKTANNGTVVGAITKKWGGCFREAFTDADTFAVNFPGDLDVKLKGVLIGATFLIDFMEFEQQSQNRNNGGAYYSSS	not soluble
MGSDKIHHHHHHMKNIYLFIVSLFFFYTGCDTQQTKYPFSVETVLAKAGNNRKELEKALDYFYKQGDSIKIKAIEFLVAHMDIHYSETYYWKTREGKRVDFSEFDYANLETAVKAIDSMRKKYGSLDFQDTIIYDVNSLTGKYLINNVNHAVDTWRLSEYKDIPFNDFCEYILPYRVTVEPVTEWRKEYCKRYHWLTDSLQNKPLENVLDYAAIDYKDWFTFTYGSETRNEPLSRLSAQQLLFRKKGACEDIAALETFIFRSQGIPAAYISVPLWATSAGAHFSNTVFDTKMKPVKLDVTTHAVVDHPLDREPSKVIRYTYSSQPGTLASKEKEECIPTGFLQKTNYIDVTHEYWETSDVTIPLFNDTTHIIYACMFSMGRWNAEWWGERMENSVTFHNMPRGVVILPMIYKEHQLIPIGYPIVNGYNHQLYLVPDLLHTMTVEIEEQDRYLRFRPDKKYELFYWDNAWISLGTQVATMDADCLQFNQVPQNVLMLLVPEYSERKERPFIIMPDGTRYWW	not soluble
MQDLPPCPKCNDAYTYHDGTQLICPSCLYEWNENEVNDEELIVKDCHNNLLQNGDSVILIKDLKVKNSSLVLKKGTKIKNTKLVNSDHNVDCKIEGQSLSLKSEFLKKA	not soluble
GSHMGGWSIALHGGAGDIPFSLPPERRKPREEGLRHCLQIGVEALKAQKPPLDVVELVVRELENIEHFNAGIGSVLTNSGTVEMEASIMDGNTMKCGAVSGLSTVLNPISLARLVMDKTPHIYLAFQGAQDFAKQQGVETVDSSHLITAENVERLKLAIEANRVQVDYSQYNYPEPVKDDAEKELPLTNGDSQIG	soluble
RREMTSYSDIDLILLHPEGSIPSGLEHFWYPIWDAKIRLDYTVRTPKECADMISAEPTAALALLDISHCSGDPQLTATTRCVVLEQWRRELKKNFNDVTDTAIARWNRSGSVVDMTHPDLKHGRGGLRDIELIRALALGNLCDKRPLGEERQLLLNIRTMLHQHAGRARDVLDPEFAVDVALDLGCEDRYDLSRSLAKAARTIDDATNAALSTARNLLPRRSSVRKAVRRPVDIDVVEVDGTLALSRTPNLEDPSLVLRVAAASARTGMTISESAWKQLETVPSMPPT	not soluble
MDRATVVGGAARRLAMIAVIIPAHNEAECMAACLASVFLAASHPELREPVEVIVAVDRCTDATAALAQALGARVIDVPVPGGVGIARAAAASKAIALGADWLAVTDADSRVPADWLVEQRRADADVFCGVVQVEDWLDYSDEVRCRFEQTQATGQGHGRIHGANLGVSAALYQQCGGFPAVTCSEDVALVHALQAINASIAWSPRSVVWTSARRQARAIGGFSDFLKKLEASTCVPALEHHHHHH	not soluble
PEQDIVYISASSGSTGVPTASPFTQSDFDGWIDYEARQFWSSGMRPSDRYVHSLNFSLFIGGPCVLGAQKLGALTIHAGTIPSDRLLQILRQFQATVIWTTPSYAWYLGETAIKEGYDLRKDLAVRRIFVAGEPGGSIPETRNRIEQLWGASVYDYYGLSDIFGSCAGMCEQKE	not soluble
MAHHHHHHMSVRSGQFNYDAVARESPVGFTKITEGTTAVLEPPPKKKTCTSSAAPAPASNLSDEEADNQLVDQAVFYNPAQVVNRDLSISVIEVFSRLRLTEPRRRGGTNEGITILEALSATGLRAIRYYKEITNVRYIIANDMDADAVDCIVRNCAYNGVPVQYPTLMANMPAAAIELYAGEAEAEKGESATGASPRVGVRAGGAILPNLDDANDLMFRLAMNSNAHPGKRVCLVDAPAETSATASLRPLLQQELMDVVDLDPYGSASPFLDGAFRCIKEGGLMLVTSTDSAILCGNFADTAHAKYSSMPYKAAHCHEAAVRTLLACVERVANRHQKFIVPLLSLHIDFYVRCFFRVYKQPAETKLSACKLGYQLQCSSCSAFWVRPMATARQPRPSRQERRRQRRALAGRVNSDADEAEEEGKTAEGAAEASRAHARPRRLSKRVRDGSDDDEAVAHDVDGVRTEVYPASPSRHSHPKITPLTLQQMPSAASATSTTAATACPVCGSSIVLSGPLYAAPTQNCEFLQQLLALLHERASEGRLNAEARITGLVRIALEELPDCPLFYLLPDVASYVRVRCPPTPCIVGALARLGYRCSQVHCAAAGLKTDCPPEVLFRVMLQWKTVQDTLDPVGEATIEDGADKSKKKAPAASTAPRSLLVTPLAEADFTYDKAHDFRGRVTGVAKFVPNASGWGPRRRHRGAAAVPEAVECGNGEDNDGGSGEA	not soluble
MSLTGRAFAIPLRTRFRGITVREGMLVRGAAGWGEFSPFAEYGPRECARWWAACYEAAELGWPAPVRDTVPVNATVPAVGPEEAARIVASSGCTTAKVKVAERGQSEANDVARVEAVRDALGPRGRVRIDVNGAWDVDTAVRMIRLLDRFELEYVEQPCATVDELAEVRRRVSVPIAADESIRRAEDPLRVRDAEAADVVVLKVQPLGGVRAALRLAEECGLPVVVSSAVETSVGLAAGVALAAALPELPYACGLATLRLLHADVCDDPLLPVHGVLPVRRVDVSEQRLAEVEIDPAAWQARLAAARAAWEQVEREPGPEGHHHHHH	soluble
VTSSPFKTIKSDEIFAAAQKLMPGGVSSPVRAFKSVGGQPIVFDRVKDAYAWDVDGNRYIDYVGTWGPAICGHAHPEVIEALKVAMEKGTSFGAPCALENVLAEMVNDAVPSIEMVRFVNSGTEACMAVLRIMRAYTGRDKIIKFEGCYHGHADMFLVKAGSGVATLGLPSSPGVPKKTTANTLTTPYNDLEAVKALFAENPGEIAGVILEPIVGNSGFIVPDAGFLEGLREITLEHDALLVFDEVMTGFRIAYGGVQEKFGVTPDLTTLGKIIGGGLPVGAYGGKREIMQLVAPAGPMYQAGTLSGNPLAMTAGIKTLELLRQPGTYEYLDQITKRLSDGLLAIAQETGHAACGGQVSGMFGFFFTEGPVHNYEDAKKSDLQKFSRFHRGMLEQGIYLAPSQFEAGFTSLAHTEEDIDATLAAARTVMSAL	soluble
SKSGAQTPKSPPEHYVQETPLMFSRCTSVSSLDSFESRSIASSVQSEPCSGMVSGIISPSDLPDSPGQTMPPSRSKTPPPPPQTAQTKREVPKNKAPTAEKRESGPKQAAVNAAVQRVQVLPDADTLLHFATESTPDGFSCSSSLSALSLDEPFIQKDVELRIMPPVQENDNGNETESE	soluble
IDFHRGTQGEGRVEVELSQPGAVINVHSHGSRLLVEFMKAYLPPNLERRLNVLDFATPVQSVETVARDGNVQMIIEPKGRWEHTSWQTGTSFVVEIRPMAEAED	not soluble
MKIGVLGLQGAVREHVRAIEACGAEAVIVKKSEQLEGLDGLVLPGGESTTMRRLIDRYGLMEPLKQFAAAGKPMFGTCAGLILLAKRIVGYDEPHLGLMDITVERNSFGRQRESFEAELSIKGVGDGFVGVFIRAPHIVEAGDGVDVLATYNDRIVAARQGQFLGCSFHPELTDDHRLMQYFLNMVKEAKMASSLK	soluble
GPGSMSSFAPNVKICEDISHISSAARDIILAAIDARVDKSAPVVLALSGGSTPKRLYEELHEKDLTLLQQHAVQFILGDERLVATDDEQSNFSMATKALLRDVPISDVIAIEPSAALATSKDEKGGVDGAWAVAQDYEKKLRNRLPCTQVNGTDMSVPIVDIVLLGFGADGHTASIFPDSVAATDESHVVSVSFPSPTMNPKVWRVTLSKTVIQHAKHVVVLACGKDKNWVVHGVLAEAPTGPLPVSRFLRECRGSVTMLLDAGSGEGLSA	soluble
